Article PMC9520032

Biological target: Vibrio cholerae cytolysin E289A mutant, mature form (Vibrio cholerae)
Assay: cryo-EM structure

Which stoichiometry N does the source give for “Vibrio cholerae cytolysin E289A mutant, mature form (natural protein)” here?
The stoichiometry N was 7.
